These results are taken from paper PMC4773448, “Isolation and Characterization of a Novel Cold-Adapted Esterase, MtEst45, from Microbulbifer thermotolerans DAU221” (Frontiers in Microbiology, 2016).

Substrate in the data set: CCCC(=O)Oc1ccc([N+](=O)[O-])cc1
The experiment in a line: purified protein. The format is biochemical, Microbulbifer thermotolerans. As to conditions: 20 mM Tris-HCl pH 8.17, 46.27 °C, 0.1-1 mM substrate.

B1: MtEst45 (Microbulbifer thermotolerans) (protein)
chain: APRFISNLDIISFDGTELDANLFVPDTPPPDGGYPTVLFTNSWALDKHQYLLQAKALAEKGYLVMSYSTRGFGKSGGLVDVAGDNTLADTRVLIDWLEANYPVGKLGMAGISYGAGISLLTAAADSRVDAVAALSGWSDVVEGLYPNNTVNLVWGTLLVNTAFKREPIVDQIWSNLRNGHNLSDVFTFSASRSALSYVDALNANGTAVLLSNNFADYLFKPNSTIDLYTLLEGPKKLLLNPGTHAVTETLGGNGGHIWTTSFRWFDRYLKGENNGIDREPKVDMTVRISNRLEQFDDFPVTGKQSHWYLHPRLTYFGNGQLKSNPYSGWRWSNQFHSGADTAAGTGIPLVSDALEGLGIPVYTFMPAINGYYAIEYQSPLLWNGMKIRGTPTLEMWITPSKPEVQLHLHLYDTGPLGMGRLITHAPITLRNAQVGREQKIDVEFFTTSYDVPAGHRVTLAIDTEGLIYQKPADTDYEITVPYRSDRVSKLAIPQL
notes: mature form without 21-residue signal peptide (495 aa of 516); N-terminal His6 (pCold I), E. coli BL21(DE3), tag not reported cut; about 45 kDa on SDS-PAGE
What is called Km is the concentration of substrate that gives half-maximal velocity. As for B1, the Km is 99.8 µM.
